The NTF2 design screens of Basanta et al. (2020)

assay: protease stability score; higher = more stable; yeast display proteolysis, trypsin and chymotrypsin;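 further: relative to predicted unfolded state with 0 unfolded-like and 1 meaning tenfold more protease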

First: HEDEKVLKEMLRILAEVITTGNEEVMKRLADPHVRIDWNGRDIIGMEERYRKLREMGIEFEVRIHLRDTRSVGEKVEFITQLDVHIRVGDKTINFHQETRVDMEKVDGRWRVNEEKVV
Second: DDRDREARKLIQEITHALHTGDEELMEHMLDPSVRTNINGKDIHGMDLFYKWLIELVRRLGADHLNFEVKRVQLYGNKLNTDGHLFVHQGDFTILLNVRWYNLKVNGKWIHESIEIR
The protease stability score of the first is lower: 0.415 for the first, 1.45 for the second.

First: DEEEKEAREALEEFIRSVHTGDEDHMVWMFDPNTRIEVGDKKLHGRELAEEFAERWKKHIRLEDVNLTEVHVQGEKVHIRGILHGTVGDKEVRRESEVMMLKVDGRWFLHSIKFK
Second: DENSHALEIAFRLFLEYYYTGDPDEMVELADPRTRLFVGEYDSHGREQFETLLREEFKRLGIDVQHITEWEIHVQGDKVILHVRVHEVFNGKETETEIHITMHKIDGRWLISSQKRRIV
The protease stability score of the first is lower: 0.463 for the first, 0.626 for the second.

Compared with “EEDEEYLRKHYTDLKHALETGDEDRIMELFDPHVRIDDEDHNLHGREELFRWLHDLGIDHHELRIDDFKIDGDKVSIDGHLRVIVNGRDIHFRTIIRIKKVNGQWRLTHLEIR”, “DEDVELFELIFKVMIELLETGNEELLRHLADPHTRVHINGVDFHGMEDWLKFLRHIRIEDIKIRHVSVVNGVMHAETETLMHVNGRDKRVDTRVTAIKINGRWVLKHVQYK” is higher in protease stability score: 1.94 for the first, 2.51 for the second.

First: REDEQDLRKFVEDLIHSLKTGDEDSTSRLLDPHVRVEIGDKEFVGREDFTRLMVETVRRYDHIRFDLRRVEDIDGKAHIHGHIYIRVNGVWHHKEVEIIIDKINGKWVIRELRVK
Second: DEEEEMRRRQTTLFLEAWITGDWDLIQRLLDPHTRVDVNGVEIHGMEEFARWFREKKEKVKNLRSHLTDIELQGEKVILYGIDTVNGKTHKVRVKVDIVDGVIKEVRFDLR
The protease stability score of the first is higher: 2.33 for the first, 1.4 for the second.

Going from “DETKEYAKEMFEILKESLETGDWKKIRHLADPNVRLHIGEFEHHGWKEFIHFFREFLHHLRLEDVETKHIEVQGDKMILRTTLHLRQGDKSRDLDVIIIYRKIDGRWMLHSVEIR” to “DKREEEVHELIRELVESIITGDFRHFFKLLDPHARSEVGDKELHGREQISDWLLKHIRRVKNITFKEVHFHELRVIGDKVEFHFDIRGVINGQDTTLEVEMKARKIDGRWHVEEIRFI”, the protease stability score falls from 1.4 to 1.28.

Going from “DEHRKLIEELAEKLIEALWTGDERRIRELADPNVRMDYGEFKIHGRDLMVETLKHEMKKFKNVRLINHHVTVQGEFINIDMEVRFDGVSHRVEHNWDVVNGVVKEVRIEKN” to “TEDEEDSLFAFDEWVKSVETGDEHTLSKLADPHTRLNVNGVDQHGRENMSHMMLRLANRYDHIEIRLHSWRLINGRIEVDSRVINVVGDKRIESNFHMFILKVNGRWLMHSVHFE”, the protease stability score falls from 1.09 to 0.847.

Compared with “RETEEEIRHAHELLLEAEQTGDEHILHHMLDPNVRFQVGDKHIHGRENFMKQFRKLWEDFGVDHIEIRLKEMRVFENRVHVRGELIIRVGDKEMRTKHIEVSEKIDGKWLLHSVKFE”, “DEEEEKLRFAVELFEETFRTGDEKLKEHLADPDVRVHYGDFEYHGRETLERWTRFVKGVKVELKSIDIINGVLDLDGTLHFNGRTFDTRYLALKINGRWILKRVIIH” is higher in protease stability score: 1.14 for the first, 1.49 for the second.

Compared with “SEIDHIVKELIRRESEYLKTGDEDAFHDLFDPSTRIEINGQEFHGREWHKHLLKELRFHSIELHDWRIVGDKVEMDTRMLTEVGDKRDYRRTTMHATKFDGKWYLTRVIIE”, “DRDEQMLRTYLHRMYESIRTGDEDSFKRLFDPNTRLHFENHHEHGWELLLRLMLRYANQADHFKLEIEDVTVQGDKAILRVHITVHVDGRDVSRSTVLYTTKVDGQWHFETVREK” is higher in protease stability score: 1.24 for the first, 1.48 for the second.

Going from “DELFKNMHTMAEIFLKLLLTGDEDLIRHYADPNVRLEWIFNGVRFEHVGRESFMEFLHRWLEELRLHDLIVHEVRFQGDKYHMDTRERVRVDGVELDRKTEQMYVVVDGRLHSVHRIIN” to “DEWEKLYEIALEIFLEVFKTGNEEMFLKQADPHVRLDVGDKHYHGREHVVKFLIDELKRVKNLKVSSEHESFVGDYAHMHIDLDIDGRRVDVEIVSLKVDGKWVLREVRLH”, the protease stability score rises from 0.678 to 1.34.

Compared with “SEHEEHIKHLAEEWIRLVLTGNEEIIDHLFDPNVRVEIDGREMIGREKMNEWMRHVLRHWRTHIVIRRMTAIGDKAHSDGELILHVGDKTIRTKVHFHLVIIDGRIHEVSVDIR”, “DEDEKLMEETLKVLIRAFDTGNWEDLKRMVDPHVRIYFNGRIFHGREFFMEYVIHLRHHARIHLELKDIEVQGDKAHADSRVLVIQGDKSWEFDLEINMTKYDGRWHIKTIKIR” is higher in protease stability score: 1.58 for the first, 2.68 for the second.

Going from “SEDEKIASEIAEYVERAFRTGNEEEWERYADPHVRTDVNGQDLIGRRTLEEMFHRIDHLHDSRMEIHDVKLVNGRIISDVRLHLDSHYNGVRFEWEHEVRIQVDKINGRWRVKFIEIR” to “SEDEQSLREHIEWIIRALETGDWKKIEKLLDPHTRQDVNGREHIGREEVSRAIVQTFETLGVDHVQLTEIRNINGRLIVHVKMDVNGKILDLELIVTKIDGKWFMESVRLH”, the protease stability score rises from 0.428 to 1.89.

Compared with “NEDEHRARFIFRILTKAILTGDEDFLHRFADPNVRIHVNGVNLIGMEEWLRHLKELRIHFITSHVREIDKIDGVMIVHGEFVIDGEVNGKRDTWHTEIHLVITKVNGRWILHELHTR”, “DEDEDSFRRISKLLSHAFRTGDEDLVLELLDPHVRIVIGDKELHGWEQMDRWVRELRIRDHEIKRLDIQGDKAIVDTRLLTRVGDFHYLIDVRIIFTKVDGQWHVHQFEFH” is lower in protease stability score: 2.58 for the first, 1.52 for the second.

Compared with “DEDEERSERLLHMVIELLLTGDEEKWNNLLDPHARVEIDGQERHGRHIVTHFLTRFKNVRMHIHDVKVYGEKVDITTEITFNGKHINVHIELVFVNGKMTSVRFEWHRH”, “DDIEKLMLWALHLFSHALSTGNEELVIRLADPHYRLHIGDWESHGRENFRQFIHEIRMHMKRVDDRDIRVQGEFVRIEGELDGVIFIDGRTFRTRLDTRIILNKVDGRWFIHSNHVH” is lower in protease stability score: 2.02 for the first, 1.27 for the second.

Going from “DEHEEHWREMFERWLFALITGDEETLHKLLDPNVKMDINGQHHVGREQVLHEFRKFHDVLGVKVSRNFHVKDKEVQGDKLHLTIEFRGEFNGKEEITQARIVIVKINGRWTIERVELE” to “SEDEKKRDESLELILRAILTGDEDLLKTLADPHVMFDWNGKELHGMNVFIHWVRHMGVDHRNIESKDKRIQGDKVRLDMTSNEHAENHEHRYRVELIIKKIDGRWIIKEFIIR”, the protease stability score falls from 1.97 to 1.36.

Going from “DEDDELAERFFRFWLEFVLTGDEDSSSHLLDPDVRTKYNGVDFHGMESHSKLLLELRIKDFRFTRIRIINGRLEIHGRMHQEIDGKKVDTTVTIDSIKINGKWRVKTINIG” to “SEDETLAEEAVEEFEKHMETGDEDELIRLVDPHVKIHFNGRDIHGWKWIHVFLRDLGVDVKRIHVKDIEVFNGVVLLRGEFRFRFNGQDFSKDVENIIVKVDGRWFHHEIRIR”, the protease stability score rises from 1.73 to 1.85.

Compared with “NELEDLVRWAWQLIVESHQTGNEHMMEELADPNMRIHINGVDLVGRKDFRKMLKDHRDRVDHLEVELTDFILIDGRVIVHGQINIQIGDKREERRVRLFLLKINGKWRIEKLEVE”, “SEEEKAIIDLFKLWIHAFVTGDEEKLSELMDPRVRLTVGDKHLHGMEIVVEWYRRLRDKIKNLQFRSFEIEDFRIVNGRVELEAVIHIHFNGQMRTIEVRFILEKVDGRWFLKSVEEK” is higher in protease stability score: 1.64 for the first, 2.57 for the second.

Compared with “REEEDNAEKFWEEFSKSLLTGDEDHMEELADPNARMRINGREKVGREEVRKELSHLFTHIRLKSIHLKDFKFFDGRLDIDGSLDGHINGKRREIEVHVHLWKVNGRWTLETLKIN”, “DEHEEDVSKFTKMWEEDIRTGDEDSLYKMIDPHALLDFNGKEIIGREEVMHILHEELRELRIHNVHTHDIKVQGNKVNLNIRFNIEINGRIYDLQYKYDWRKINGRWFAHSEVIR” is lower in protease stability score: 1.17 for the first, 0.764 for the second.

First: DEERRRDEEDWRFLEHVWETGDFDALVNMIDPNVRIEFEGRTHHGREDASHLIKRLGVKYFEVKSQNIQGDYIIDDVEFRVGEYRTRVRIIIHKIDGKWYIHSLHIL
Second: SEEEEIMQRLLELMLQVFKTGDWKSLTDLLDPHVRLRIHQGDKTLHHHGREEFTERLRKLDEHLGVSRIDVRDHDMHEINGVLIIHLELRVNGRKVHVLILAEKIDGRWLLKSMHLVWH
The protease stability score of the first is lower: 0.913 for the first, 1.42 for the second.

Going from “SEDEQLAREAIERLLQDFSTGNFERLMEMVDPNVRWEVGDFVSHGRENWSEHFRTYLEKMGFKHVNVRLKHIEVIGNKVIVHSEIIINVDGQELRMQSSSHVVKINGRWVLRSESHL” to “DEDEKASKEFMRLVMEVLKTGDWKSLVDLADPHARLHINGREIHGREKISEILLHELDLLGFKHMEVRVHHVEVQGEKMKFDVRHSLDVNGVERHETSMIISVKFDGQWWLKEEIVK”, the protease stability score falls from 2.06 to -0.07.

First: DEEEKVSRLAWELLFKTWKTGDEHEFHHMFDPDVRVDFNGRHLHGREAEEILFKQVDHIEDLHLRHIHMIDGKIQIEEDVVGHFNGQRTNVHVRFVAKKIDGRWRNKMVIVR
Second: DEVERDSELALREFYHAFRTGDEHTLVDLADPRTLTIWNGVELHGREEMKRLWHKVKNITVHDHHIDHERLIGNFVYMDVTIDGTFNGRRYRVRSHMVILKINGKWLYEKQHYE
The protease stability score of the first is higher: 1.2 for the first, 1.16 for the second.

Compared with “SELNEISEEAVEWFRKVLLTGNEDLLLNLADPNVRYEVGDKRRVGRESMIEQIQHFLHEMGINHIHSVHIRDVRIQGDYIEVDSELETTVNGQKMYIHMFLRARKIDGKWILDRIYVH”, “EDEEQHTEELAHIFTEDYFTGDESSLERYLDPHVRLRIEYGDWEFSVHGRERAVDKIHWTMKQMGVKHVYLRHIRVQGDKVELNLELRVGDKVREQRIEIKVVNGRIKLVNIVIH” is higher in protease stability score: 1.02 for the first, 2.15 for the second.

First: DHEEEKAVEIARLLLEAELTGDWKTFSHLADPHTRWIERIDGREDSRHGMEEVVRIIIERLKEIRMEVRIRRKRVVGDKVELDGELIMRINGVEIRVEVRIIIIIVGDKVKFIEITIH
Second: SETEKLLHEILEKLIRNEATGNFENIEQLLDPHYRVEIGEFEMHGMEEIIRWLNWVKREMRIKRRHIRTMTWQGDKALVDTELHIQVNGQHIRLDEYIVVLIINGRVKEVRVEHR
The protease stability score of the first is lower: 0.83 for the first, 0.943 for the second.

Going from “DEIKESAEEAQRTWVHNSLTGNEEELSRNADPDVRVIIYVNGREIRLIGREFLEELMHRVKNLTIEVDEIRFQGDKIRFNERWTVNGVPRHVDLVMHKFNGKWHIHSINIHVV” to “DEMERNEELALKIIEETQRTGDWHMIYEQLDPHVRIIIGDKTLVGREHVEEWLHRIDHLHVDDMKLEHSRPINGRILLDVHMHVHIRYGDKQVKHTTHVHIIMFKFNGRWYLKIVHIH”, the protease stability score rises from 1.15 to 2.65.

Going from “DEEEKWMRNLTEWLLKSLTTGDFESFNRMFDPRTRMHVDGREFHGREEVERYLREFDDKLGADHRESDLEHIEVQGNKARFHTTLKFDIGDKHLRIDTHLVIVKINGQWRIRHVEVR” to “SELKEILRKAIELLLRLWVTGDEEELLELFDPNVKLVIGDKIFIGREEFEKVSRHARVKRSDINDFRVQGDKITYDTRMDGHVNGKDIDTTVDIIAVKIDGRWFNHSIIVH”, the protease stability score falls from 0.839 to -0.093.

Going from “SDVLESTKSFLRFFVHAMITGNEEELSRNLDPNVRLLFNGVNYHGMEELVRLLIELGIKIHEWHTHDLKFQGEKLYYLGRRDGEVNGRRSEEEVEFIIFKFNGRWFLHEMRIH” to “SEEEELLEHAYRHLIHTILTGDERLIEEMLDPNVRISIGEYHSHGREEAIRDVHELGIKHSERLHLTHVDSQGNKVRLHVEFVTNVNGVRRHVTVTWHIIKVNGKWYIESWDHQ”, the protease stability score rises from 0.627 to 1.83.
